Measurements published in US5550213A, “Inhibitors of urokinase plasminogen activator” (Rutgers, The State University of New Jersey, priority 1993, dated 1996).
Like-named read-outs stand apart in the source and are kept apart here. Where no end group is shown, it is not given here.

What was measured:
[1] = target: T1, urokinase (UK) (Homo sapiens, UniProt P00749); assay: Ki of inhibitors against urokinase, fractional enzyme activity assay (Empie and Laskowski) with chromogenic substrate S-2288; type: biochemical; design: purchased Abbott Pharmaceuticals
Description: Fractional enzyme activities for each inhibitor-UK interaction of the above discussed inhibitors were determined by the assay method of Empie and Laskowski (Empie, M. W. et al., Biochem. 21:2274-2284 (1982)), as adapted from Green and Work (Green, N. M. et al., Biochem. J. 54:347-352 (1953)). The concentration of UK used for these reactions was 35 nM. The reactions were carried out in Buffer C. The concentration of the chromogenic substrate used with UK in these assays (S-2288, KabiGen) was […], which is one tenth of the Km of the substrate for UK. Km was determined by a Michaelis-Menten analysis, using a 100-fold range of substrate concentration in Buffer C, and determined to be 4×10^-4 M. Ki values were calculated as the slope of a plot of [I]o /(1-a) vs. 1/a ("a" represents residual enzyme activity) using a variation of the formulas derived by Henderson (Pratt, C. W. et al., Biochem. 26:2855-2863 (1987)). […] These five mutants include the four detailed above(88, 89, 80, AND 91), and also a mutant with arginine at the P1 site of OM3TKY (P1-Arg). […] "ND" means not determined.
Ki values for the wild-type and mutant inhibitors versus urokinase were also determined by non-linear regression of the following equation: [formula]
The non-linear regression was done using the program Enzfitter, by Robin Leatherbarrow. […] Enzyme and inhibitor concentrations used were determined as mentioned above.

[2] = target: T1, urokinase (UK); conditions: from Turpeinen et al. (PSTI), Christensen et al. (PAI-2); serpin Ki not functionally comparable to reversible inhibitors; read-out: Ki (nM) against UK, values obtained from the literature; cited from earlier work

Ki ([1]; non-linear regression with Enzfitter, read-out: Ki (nM), Ki VALUES OBTAINED BY NON-LINEAR REGRESSION FOR INHIBITORS AGAINST UK) [nM]	inhibitory activity against UK ([1]; statement on Table 5)	Substance	Ki [2] [nM]
1790 ± 415	virtually no inhibitory activity	P1-Arg: mutant with arginine at the P1 site of OM3TKY (VDCSEYPKPACTREYRPLCGSDNKTYGNKCNFCNAVVESNGTLTLSHFGKC)	–
–	–	PSTI: native Pancreatic Secretory Trypsin Inhibitor, a Kazal-type inhibitor from humans (DSLGREAKCYNELNGCTKIYDPVCGTDGNTYPNECVLCFENRKRQTSILIQKSGPC; ends and bridges not checked; cysteine pairing not given here; UniProt P00995 24-79, looked up) [reference compound]	300
